This is an account of results in patent US20090270506A1 (published 2009).

Data set [1] concerns the molecule itself. Briefly: sedimentation equilibrium, analytical ultracentrifuge, 0.8% β-OG (self-association).
Experimental: Sedimentation equilibrium (SE) runs were performed at various speeds at 20° C. with sample volume of 100 μl using an Optima XL-I analytical ultracentrifuge (Beckman-Coulter, Palo Alto). The initial protein concentrations were 0.2-0.6 mg/ml in 20 mM Tris-HCl pH 7.5, 5% glycerol, 1 mM TCEP, 0.8% β-OG and 1 mM MgCl₂ (buffer B). The equilibrium absorbance profiles were recorded after 20 hours at 280 nm.
Analysis of the profiles was performed with the Beckman software package and the Schuck program [sequence] […] All solvent densities matched to the detergent densities by addition of sucrose, or not matched, were measured with a PAAR density meter, type DMA4500 (Anton Paar, Graz, Austria). The detergent densities were assessed in the buffer without protein from separate SE runs where the interference detection optics was used for the non absorbing detergents. […] Because of the sucrose addition the hydration state of the protein has to be considered. […] Thus, this value was used. […] The profiles were analysed by a model with various numbers of bound micelles. […] Thus, the analysis was carried out under this assumption providing a vbar value of 0.791 cm³/g. Similarly, the non-density-matched sample with β-OG under the cmc was analysed with vbar=0746 cm³/g.
In data set [2] the target is human 2,3-oxidosqualene:lanosterol cyclase with C-terminal myc-epitope and 6xHis-tag (human) (UniProt P48449). Briefly: self-association; sedimentation equilibrium AUC at 14,000 rpm, 0.2% β-OG (below CMC), supernatant at equilibrium.
Data set [3] has the same target. Briefly: self-association; sedimentation equilibrium AUC at 14,000 rpm, 0.8% β-OG, supernatant at equilibrium.
Data set [4] shares this target. The experiment in a line: self-association; sedimentation equilibrium AUC at 14,000 rpm, 0.6% C8E5, supernatant at equilibrium.
Data set [5] has the same target. Briefly: self-association; sedimentation equilibrium AUC at 14,000 rpm, 0.016% DDM, supernatant at equilibrium.
Data set [6] shares this target. The experiment in a line: self-association; sedimentation equilibrium AUC at 14,000 rpm, 0.2% Triton X-100, supernatant at equilibrium.
For data set [7] the target is unchanged. The experiment in a line: self-association; sedimentation equilibrium AUC at 14,000 rpm, 0.06% LDAO, supernatant at equilibrium.

B1: human 2,3-oxidosqualene:lanosterol cyclase, wild-type without tag (enzyme)
chain: TEGTCLRRRGGPYKTEPATDLGRWRLNCERGRQTWTYLQDERAGREQTGLEAYALGLDTKNYFKDLPKAHTAFEGALNGMTFYVGLQAEDGHWTGDYGGPLFLLPGLLITCHVARIPLPAGYREEIVRYLRSVQLPDGGWGLHIEDKSTVFGTALNYVSLRILGVGPDDPDLVRARNILHKKGGAVAIPSWGKFWLAVLNVYSWEGLNTLFPEMWLFPDWAPAHPSTLWCHCRQVYLPMSYCYAVRLSAAEDPLVQSLRQELYVEDFASIDWLAQRNNVAPDELYTPHSWLLRVVYALLNLYEHHHSAHLRQRAVQKLYEHIVADDRFTKSISIGPISKTINMLVRWYVDGPASTAFQEHVSRIPDYLWMGLDGMKMQGTNGSQIWDTAFAIQALLEAGGHHRPEFSSCLQKAHEFLRLSQVPDNPPDYQKYYRQMRKGGFSFSTLDCGWIVSDCTAEALKAVLLLQEKCPHVTEHIPRERLCDAVAVLLNMRNPDGGFATYETKRGGHLLELLNPSEVFGDIMIDYTYVECTSAVMQALKYFHKRFPEHRAAEIRETLTQGLEFCRRQQRADGSWEGSWGVCFTYGTWFGLEAFACMGQTYRDGTACAEVSRACDFLLSRQMADGGWGEDFESCEERRYVQSAQSQIHNTCWAMMGLMAVRHPDIEAQERGVRCLLEKQLPNGDWPQENIAGVFNKSCAISYTSYRNIFPIWALGRFSQLYPERALAGHP
notes: Expressed in P. pastoris from pPICZB; the whole entry is named; also called hOSC wildtype; hOSC wild-type
With B1, in data set [1], the binding result was “no binding”.

B2: human 2,3-oxidosqualene:lanosterol cyclase with C-terminal myc-epitope and 6xHis-tag (enzyme)
chain: TEGTCLRRRGGPYKTEPATDLGRWRLNCERGRQTWTYLQDERAGREQTGLEAYALGLDTKNYFKDLPKAHTAFEGALNGMTFYVGLQAEDGHWTGDYGGPLFLLPGLLITCHVARIPLPAGYREEIVRYLRSVQLPDGGWGLHIEDKSTVFGTALNYVSLRILGVGPDDPDLVRARNILHKKGGAVAIPSWGKFWLAVLNVYSWEGLNTLFPEMWLFPDWAPAHPSTLWCHCRQVYLPMSYCYAVRLSAAEDPLVQSLRQELYVEDFASIDWLAQRNNVAPDELYTPHSWLLRVVYALLNLYEHHHSAHLRQRAVQKLYEHIVADDRFTKSISIGPISKTINMLVRWYVDGPASTAFQEHVSRIPDYLWMGLDGMKMQGTNGSQIWDTAFAIQALLEAGGHHRPEFSSCLQKAHEFLRLSQVPDNPPDYQKYYRQMRKGGFSFSTLDCGWIVSDCTAEALKAVLLLQEKCPHVTEHIPRERLCDAVAVLLNMRNPDGGFATYETKRGGHLLELLNPSEVFGDIMIDYTYVECTSAVMQALKYFHKRFPEHRAAEIRETLTQGLEFCRRQQRADGSWEGSWGVCFTYGTWFGLEAFACMGQTYRDGTACAEVSRACDFLLSRQMADGGWGEDFESCEERRYVQSAQSQIHNTCWAMMGLMAVRHPDIEAQERGVRCLLEKQLPNGDWPQENIAGVFNKSCAISYTSYRNIFPIWALGRFSQLYPERALAGHLEQKLISEEDLNSAVDHHHHHH
On to B2, for which the dimer [%] in data set [2] was determined as 71%; in data set [5], 23%; in data set [7], 6%. In addition, the monomer [%] in data set [2] was found to be 0%; in data set [3], 100%; in data set [4] it was 100%; in data set [5] it was 70%; in data set [6] it was 100%; in data set [7] it was 94%. Besides, the tetramer [%] in data set [2] amounted to 18%; in data set [5], 7%. In data set [2], the trimer [%] is 11%.
